{"source": "patent US20200399381A1", "about": "(I MAB BIOPHARMA US, published 2020)", "key": {"[1]": {"target": "T1, hIFNAR-1(1aa-409aa) L274A (human, UniProt P17181 28-436)", "T1 construct": "range 1-409", "T1 sequence (looked up)": "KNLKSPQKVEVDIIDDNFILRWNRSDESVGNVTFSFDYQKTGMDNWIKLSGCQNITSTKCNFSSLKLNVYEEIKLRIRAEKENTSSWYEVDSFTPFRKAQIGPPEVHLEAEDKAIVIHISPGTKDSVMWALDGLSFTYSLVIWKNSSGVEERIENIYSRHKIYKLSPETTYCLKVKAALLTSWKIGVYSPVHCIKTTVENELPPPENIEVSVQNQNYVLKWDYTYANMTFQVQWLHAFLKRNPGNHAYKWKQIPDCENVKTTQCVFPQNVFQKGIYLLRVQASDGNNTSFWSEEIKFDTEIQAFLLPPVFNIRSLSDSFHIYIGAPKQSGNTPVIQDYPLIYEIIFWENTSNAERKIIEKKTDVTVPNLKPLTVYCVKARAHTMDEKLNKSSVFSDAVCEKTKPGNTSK", "test": "flow cytometry on alanine scan clone, normalised to WT", "text": "(§1) For each point, background fluorescence was subtracted from the raw data, which were then normalized to Fab reactivity with WT target protein. For each mutant clone, the mean binding value was plotted as a function of expression (represented by control reactivity)."}, "[2]": {"target": "T2, hIFNAR-1(1aa-409aa) K278A (human, UniProt P17181 28-436)", "T2 construct": "range 1-409", "T2 sequence (looked up)": "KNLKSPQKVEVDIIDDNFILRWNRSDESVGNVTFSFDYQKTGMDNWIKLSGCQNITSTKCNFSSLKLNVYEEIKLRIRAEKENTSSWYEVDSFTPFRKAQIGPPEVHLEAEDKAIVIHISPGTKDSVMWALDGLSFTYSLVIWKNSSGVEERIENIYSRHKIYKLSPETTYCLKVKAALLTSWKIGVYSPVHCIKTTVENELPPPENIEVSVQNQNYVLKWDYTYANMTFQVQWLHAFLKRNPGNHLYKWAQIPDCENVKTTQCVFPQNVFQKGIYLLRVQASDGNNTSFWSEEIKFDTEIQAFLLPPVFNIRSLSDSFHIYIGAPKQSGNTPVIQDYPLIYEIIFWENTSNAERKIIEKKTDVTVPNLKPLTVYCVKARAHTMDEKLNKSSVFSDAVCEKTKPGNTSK", "test": "flow cytometry on alanine scan clone, normalised to WT", "text": "as §1"}, "[3]": {"target": "T3, hIFNAR-1(1aa-409aa) H273A (human, UniProt P17181 28-436)", "T3 construct": "range 1-409", "T3 sequence (looked up)": "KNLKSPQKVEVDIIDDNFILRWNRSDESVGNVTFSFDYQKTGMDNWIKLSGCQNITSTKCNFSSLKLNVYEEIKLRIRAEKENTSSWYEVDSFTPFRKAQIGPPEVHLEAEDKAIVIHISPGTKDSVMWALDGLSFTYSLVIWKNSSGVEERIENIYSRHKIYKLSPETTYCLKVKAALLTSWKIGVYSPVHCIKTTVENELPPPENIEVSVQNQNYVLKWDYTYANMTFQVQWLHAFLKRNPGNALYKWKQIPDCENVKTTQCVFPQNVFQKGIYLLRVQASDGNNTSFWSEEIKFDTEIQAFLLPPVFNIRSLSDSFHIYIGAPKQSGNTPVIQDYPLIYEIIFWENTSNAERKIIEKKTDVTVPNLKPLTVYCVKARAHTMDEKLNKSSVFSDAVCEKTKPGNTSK", "test": "flow cytometry on alanine scan clone, normalised to WT", "text": "as §1"}, "[4]": {"target": "T4, hIFNAR-1(1aa-409aa) Y275A (human, UniProt P17181 28-436)", "T4 construct": "range 1-409", "T4 sequence (looked up)": "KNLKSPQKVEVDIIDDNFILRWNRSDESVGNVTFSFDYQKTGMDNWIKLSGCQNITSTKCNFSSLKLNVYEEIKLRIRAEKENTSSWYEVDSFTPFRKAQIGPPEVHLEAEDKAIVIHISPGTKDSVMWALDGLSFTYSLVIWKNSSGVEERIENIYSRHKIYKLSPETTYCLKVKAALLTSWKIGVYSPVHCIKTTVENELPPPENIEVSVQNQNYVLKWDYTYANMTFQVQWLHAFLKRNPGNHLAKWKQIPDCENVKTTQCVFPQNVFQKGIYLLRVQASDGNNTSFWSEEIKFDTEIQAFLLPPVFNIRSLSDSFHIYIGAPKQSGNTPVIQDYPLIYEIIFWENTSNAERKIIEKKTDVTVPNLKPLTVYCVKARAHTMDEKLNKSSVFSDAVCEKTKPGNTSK", "test": "flow cytometry on alanine scan clone, normalised to WT", "text": "as §1"}, "[5]": {"target": "T5, hIFNAR-1(1aa-409aa) K276A (human, UniProt P17181 28-436)", "T5 construct": "range 1-409", "T5 sequence (looked up)": "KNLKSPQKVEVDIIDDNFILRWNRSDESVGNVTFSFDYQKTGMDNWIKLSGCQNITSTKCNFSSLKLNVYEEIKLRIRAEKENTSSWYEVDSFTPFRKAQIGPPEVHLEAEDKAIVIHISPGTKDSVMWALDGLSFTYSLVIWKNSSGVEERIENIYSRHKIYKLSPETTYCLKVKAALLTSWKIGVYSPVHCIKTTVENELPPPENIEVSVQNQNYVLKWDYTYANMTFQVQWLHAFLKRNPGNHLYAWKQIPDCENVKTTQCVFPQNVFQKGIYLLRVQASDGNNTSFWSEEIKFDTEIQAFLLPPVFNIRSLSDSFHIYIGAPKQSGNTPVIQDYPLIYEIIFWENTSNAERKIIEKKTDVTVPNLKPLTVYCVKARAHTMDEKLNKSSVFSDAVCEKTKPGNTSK", "test": "flow cytometry on alanine scan clone, normalised to WT", "text": "as §1"}, "[6]": {"target": "T6, human IFNAR-1 protein (form not stated) (human, UniProt P17181 28-436, limits assumed)", "T6 construct": "bispecific ELISA", "T6 sequence (looked up)": "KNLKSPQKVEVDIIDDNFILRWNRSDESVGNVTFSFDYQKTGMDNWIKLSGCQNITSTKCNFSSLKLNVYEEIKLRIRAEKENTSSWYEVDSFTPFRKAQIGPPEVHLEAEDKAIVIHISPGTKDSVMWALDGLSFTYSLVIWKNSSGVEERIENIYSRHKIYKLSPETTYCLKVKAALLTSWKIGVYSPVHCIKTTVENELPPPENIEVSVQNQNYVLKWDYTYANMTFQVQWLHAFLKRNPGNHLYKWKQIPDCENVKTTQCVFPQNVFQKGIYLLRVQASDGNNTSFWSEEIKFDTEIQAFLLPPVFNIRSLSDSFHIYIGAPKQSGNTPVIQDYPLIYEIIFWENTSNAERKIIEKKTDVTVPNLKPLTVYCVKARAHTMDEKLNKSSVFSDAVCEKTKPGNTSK", "test": "ELISA on human IFNAR-1 protein"}, "human IFNAR-1 on cells": {"target": "T7, human IFNAR-1 on cells (human, UniProt P17181 28-557)", "T7 sequence (looked up)": "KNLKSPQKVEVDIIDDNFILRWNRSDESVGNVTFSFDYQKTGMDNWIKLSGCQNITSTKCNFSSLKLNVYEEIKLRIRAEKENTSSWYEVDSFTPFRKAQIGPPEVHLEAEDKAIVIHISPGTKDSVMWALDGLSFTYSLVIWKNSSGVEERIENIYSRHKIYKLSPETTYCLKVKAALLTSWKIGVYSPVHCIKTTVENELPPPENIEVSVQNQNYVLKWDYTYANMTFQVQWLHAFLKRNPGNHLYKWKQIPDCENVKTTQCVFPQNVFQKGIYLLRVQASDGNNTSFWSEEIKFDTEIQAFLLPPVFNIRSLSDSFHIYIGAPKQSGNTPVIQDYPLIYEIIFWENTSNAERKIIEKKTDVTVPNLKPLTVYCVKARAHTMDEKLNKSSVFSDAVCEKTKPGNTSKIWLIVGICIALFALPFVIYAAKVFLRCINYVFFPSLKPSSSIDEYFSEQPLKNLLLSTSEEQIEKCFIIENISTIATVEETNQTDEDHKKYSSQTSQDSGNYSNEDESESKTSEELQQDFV", "test": "cell-based or functional assay"}}}
{"binder": "Anifrolumab (antibody, V domains shown) VH: EVQLVQSGAEVKKPGESLKISCKGSGYIFTNYWIAWVRQMPGKGLESMGIIYPGDSDIRYSPSFQGQVTISADKSITTAYLQWSSLKASDTAMYYCARHDIEGFDYWGRGTLVTVSS VL: EIVLTQSPGTLSLSPGERATLSCRASQSVSSSFFAWYQQKPGQAPRLLIYGASSRATGIPDRLSGSGSGTDFTLTITRLEPEDFAVYYCQQYDSSAITFGQGTRLEIKR", "values": [{"measurement": "Binding Reactivity (% WT)", "setting": "[1]", "value": 106, "unit": "% WT"}, {"measurement": "Binding Reactivity (% WT)", "setting": "[2]", "value": 105, "unit": "% WT"}, {"measurement": "Binding Reactivity (% WT)", "setting": "[3]", "value": 88.1, "unit": "% WT"}, {"measurement": "Binding Reactivity (% WT)", "setting": "[4]", "value": 146, "unit": "% WT"}, {"measurement": "Binding Reactivity (% WT)", "setting": "[5]", "value": 99.4, "unit": "% WT"}]}
{"binder": "8G11 chimeric antibody (antibody, V domains shown, also called chimeric 8G11) VH: EVQLQQSGAELVKPGASVKLSCTGFGFNIKDYYMHWVKQRAEQGLEWIGRIDPEDGETKYAPKFQGKATITADTSSNTAYLQVSSLTSEDTAVYYCARGGNFYVMDYWGQGTSVTVSS VL: DIVMTQSQKFMSTSVGDRVSVTCKASQNVGTNVVWYQQKPGQSPKVLIYSASYRVSGVPDRFTGSGSGTDFTLIISNVQSEDLAEYFCQQKNNYPYTFGGGTKLEIK", "values": [{"measurement": "EC50 (read off the curve)", "setting": "[6]", "value": "~0.1", "unit": "nM"}, {"measurement": "EC50 (nM), IFNα2b-mediated anti-viral assay (Huh7-Con1b HCV replicon luciferase)", "setting": "human IFNAR-1 on cells", "value": 7.73, "unit": "nM"}]}
{"binder": "8G11 Fab (Fab, V domains shown) VH: EVQLQQSGAELVKPGASVKLSCTGFGFNIKDYYMHWVKQRAEQGLEWIGRIDPEDGETKYAPKFQGKATITADTSSNTAYLQVSSLTSEDTAVYYCARGGNFYVMDYWGQGTSVTVSS VL: DIVMTQSQKFMSTSVGDRVSVTCKASQNVGTNVVWYQQKPGQSPKVLIYSASYRVSGVPDRFTGSGSGTDFTLIISNVQSEDLAEYFCQQKNNYPYTFGGGTKLEIK", "values": [{"measurement": "Binding Reactivity (% WT)", "setting": "[1]", "value": 22.7, "unit": "% WT"}, {"measurement": "Binding Reactivity (% WT)", "setting": "[2]", "value": 3.9, "unit": "% WT"}, {"measurement": "Binding Reactivity (% WT)", "setting": "[3]", "value": 31.2, "unit": "% WT"}, {"measurement": "Binding Reactivity (% WT)", "setting": "[4]", "value": 19.1, "unit": "% WT"}, {"measurement": "Binding Reactivity (% WT)", "setting": "[5]", "value": 1.5, "unit": "% WT"}]}
{"binder": "485G10 chimeric antibody (antibody, V domains shown) VH: EVQLQQSGAELVKPGASVKLSCTGSGFNIKDYYIHWVKQRTEQGLEWIGRIDPEDGETKYAPKFQGKATITADTSSNTAYLQLSSLTSEDTVVYYCGRYHGYWALDYWGQGTSVTVSS VL: DIVMTQSQKFMSTSVGDRVSVTCKTSQNVGTNVAWYQQKPGQSPKPLIYSTSYRYSGVPDRFTGSGSGTDFTLIISNVQSEDLAEYFCHQYFSYPYTFGGGTLLEIK", "values": [{"measurement": "EC50 (nM), IFNα2b-mediated anti-viral assay (Huh7-Con1b HCV replicon luciferase)", "setting": "human IFNAR-1 on cells", "value": 16.3, "unit": "nM"}]}
